# Laboratory results as given in patent publication US20120004117A1 (FORERUNNER PHARMA RESEARCH, published 2012).
# T1: N-terminally HA-tagged chimeric TM4SF20 version 2 expressed on CHO DG44 cells (chimeric TM4SF20 ver.2_CHO) (human TM4SF20 with the second loop …)
# T1 construct: also called chimeric TM4SF20 ver.2_ntHA
# T1 chain: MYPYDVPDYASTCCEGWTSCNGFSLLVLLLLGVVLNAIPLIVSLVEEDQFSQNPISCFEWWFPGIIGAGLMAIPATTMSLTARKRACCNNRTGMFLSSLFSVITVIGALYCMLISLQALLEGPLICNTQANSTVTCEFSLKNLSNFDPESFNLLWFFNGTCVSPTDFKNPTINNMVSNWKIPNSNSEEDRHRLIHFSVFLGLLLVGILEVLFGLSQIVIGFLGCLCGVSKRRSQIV
# T2: GST_TM4SF20_C3 (human)
# T2 construct: Tested as whole E. coli lysate, denatured, in western blotting; not shown: glutathione S-transferase (GST) tag encoded by the vector pGEX-6P-1 (GE Healthcare), upstream of the BamHI site
# T2 chain: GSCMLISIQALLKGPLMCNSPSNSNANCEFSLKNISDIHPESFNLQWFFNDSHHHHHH
# T3: GST_TM4SF20_C2 (human)
# T3 construct: Tested as whole E. coli lysate, denatured, in western blotting; not shown: glutathione S-transferase (GST) tag encoded by the vector pGEX-6P-1 (GE Healthcare), upstream of the BamHI site
# T3 chain: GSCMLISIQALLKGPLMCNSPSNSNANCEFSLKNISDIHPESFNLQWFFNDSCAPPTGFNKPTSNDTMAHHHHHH
# T4: N-terminally HA-tagged mouse TM4SF20 expressed on CHO DG44 cells (mTM4SF20_CHO) (mouse, UniProt Q9CQY8 2-226)
# T4 construct: also called mTM4SF20_ntHA; pCOS2_mTM4SF20_ntHA product
# T4 chain: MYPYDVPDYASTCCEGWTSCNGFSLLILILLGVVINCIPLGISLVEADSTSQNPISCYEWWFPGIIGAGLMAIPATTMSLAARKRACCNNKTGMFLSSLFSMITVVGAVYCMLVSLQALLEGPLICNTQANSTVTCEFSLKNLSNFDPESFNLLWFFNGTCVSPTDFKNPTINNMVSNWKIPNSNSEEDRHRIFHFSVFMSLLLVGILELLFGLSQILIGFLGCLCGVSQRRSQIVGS
# T5: C-terminally HA-tagged TM4SF20 expressed on CHO DG44 cells (TM4SF20_CHO) (human, UniProt Q53R12 1-229)
# T5 construct: also called TM4SF20_ctHA; pCOS2_TM4SF20_ctHA product
# T5 sequence: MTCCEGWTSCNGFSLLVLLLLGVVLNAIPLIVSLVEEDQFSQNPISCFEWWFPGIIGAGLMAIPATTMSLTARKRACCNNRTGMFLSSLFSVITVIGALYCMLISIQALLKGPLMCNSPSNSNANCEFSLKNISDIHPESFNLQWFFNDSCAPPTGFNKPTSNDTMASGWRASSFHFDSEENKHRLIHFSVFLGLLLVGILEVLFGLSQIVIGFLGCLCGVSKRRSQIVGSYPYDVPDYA
# T6: N-terminally HA-tagged TM4SF20 expressed on Ba/F3 cells (TM4SF20_Ba/F3) (human, UniProt Q53R12 2-229)
# T6 construct: Four-transmembrane protein on the cell membrane; also called TM4SF20_ntHA; pMCDN2_TM4SF20_ntHA product
# T6 sequence: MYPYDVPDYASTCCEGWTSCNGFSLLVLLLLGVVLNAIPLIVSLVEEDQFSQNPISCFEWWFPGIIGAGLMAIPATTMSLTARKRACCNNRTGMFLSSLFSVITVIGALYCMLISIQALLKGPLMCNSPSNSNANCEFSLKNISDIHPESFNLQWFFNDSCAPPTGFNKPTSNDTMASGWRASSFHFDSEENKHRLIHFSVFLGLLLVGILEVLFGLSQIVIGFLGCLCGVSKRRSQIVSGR
# T7: human TM4SF20 (Transmembrane 4 L6 family member 20), endogenous (human, UniProt Q53R12 1-229)
# T7 construct: Untagged native protein as on A549 lung adenocarcinoma cells and in clinical stomach cancer sections; also called TM4SF20 protein
# T7 sequence: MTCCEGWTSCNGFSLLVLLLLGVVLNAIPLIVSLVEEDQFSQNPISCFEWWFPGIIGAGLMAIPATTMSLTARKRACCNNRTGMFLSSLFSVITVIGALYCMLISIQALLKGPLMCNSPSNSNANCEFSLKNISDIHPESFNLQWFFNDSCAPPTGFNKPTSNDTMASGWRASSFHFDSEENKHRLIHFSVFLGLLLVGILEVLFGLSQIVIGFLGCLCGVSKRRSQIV
# T8: N-terminally HA-tagged chimeric TM4SF20 version 1 expressed on CHO DG44 cells (chimeric TM4SF20 ver.1_CHO) (human TM4SF20 with the first loop …, UniProt Q53R12 2-229)
# T8 construct: also called chimeric TM4SF20 ver.1_ntHA
# T8 chain: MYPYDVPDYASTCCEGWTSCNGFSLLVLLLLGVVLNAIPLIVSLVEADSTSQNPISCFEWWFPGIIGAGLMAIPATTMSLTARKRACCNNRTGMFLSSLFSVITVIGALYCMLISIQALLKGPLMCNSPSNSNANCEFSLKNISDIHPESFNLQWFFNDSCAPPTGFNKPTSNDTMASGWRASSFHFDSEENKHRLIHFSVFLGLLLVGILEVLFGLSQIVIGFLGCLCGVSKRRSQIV
# Tests used:
# [1] = biological target: T1, N-terminally HA-tagged chimeric TM4SF20 …; assay: flow cytometry, hybridoma culture supernatant on chimeric TM4SF20 ver.2_CHO cells
# Experimental: (§1) Next, 5×10⁴ cells suspended in FACS buffer were dispensed to a U-bottom 96-well plate. The anti-TM4SF20 antibody (hybridoma culture supernatant) or the HAT medium as a negative control was added thereto at a concentration of 10 μg/mL. After reaction on ice for 1 hour, the cells were washed with FACS buffer. Next, an FITC-labeled anti-mouse antibody (Goat F(ab′)₂ Fragment Anti-mouse IgG (H+L)-FITC, Beckman Coulter, Inc.) was added thereto as a secondary antibody and reacted on ice for 1 hour. The cells were washed with FACS buffer, then suspended in FACS buffer supplemented with 10 μg/mL propidium iodide (PI, Sigma-Aldrich Corp.), and assayed using a flow cytometer. The assay data was analyzed as to PI-negative cell populations using CELLQuest software. As a result, all the clones bound to TM4SF20_CHO but to neither […] nor DG44 cells (FIG. 4).
# (§2) Next, the binding of the anti-TM4SF20 antibody (hybridoma culture supernatant) was confirmed by flow cytometry in the same way as in Example 3. As a result, all the clones bound to chimeric TM4SF20 ver.1_CHO but to neither chimeric TM4SF20 ver.2_CHO nor DG44 cells (FIG. 6).
# GST_TM4SF20_C3 = biological target: T2, GST_TM4SF20_C3; assay: western blotting of E. coli whole cell lysate, purified antibody
# Experimental: (§3) Each construct was expressed using BL21 (DE3) Competent Cells (Takara Bio Inc.). The whole cell lysate was electrophoresed by SDS-PAGE and then transferred to a PVDF membrane (Immobilon-P, Millipore Corp.) for western blotting. The construct was detected using the anti-TM4SF20 antibody (purified antibody) at a concentration of 5 μg/mL, a 3000 fold-diluted secondary antibody (HRP-anti mIgG, GE Healthcare Bio-Sciences Corp.), and ECL Western Blotting Detection Reagents (GE Healthcare Bio-Sciences Corp). The expression of each construct was confirmed using an anti-GST antibody (GE Healthcare Bio-Sciences Corp.) and an anti-His antibody (Santa Cruz Biotechnology, Inc.). Secondary antibodies used were a HRP-labeled anti-goat antibody (Invitrogen Corp.) and a HRP-labeled anti-rabbit antibody (GE Healthcare Bio-Sciences Corp.), respectively.
# GST_TM4SF20_C2 = biological target: T3, GST_TM4SF20_C2; assay: as above
# Experimental: as §3
# [2] = biological target: T4, N-terminally HA-tagged mouse TM4SF20 …; assay: flow cytometry, hybridoma culture supernatant on mTM4SF20_CHO cells
# Experimental: as §1
# [3] = biological target: T5, C-terminally HA-tagged TM4SF20 …; assay: flow cytometry, hybridoma culture supernatant at 10 µg/mL on TM4SF20_CHO cells
# Experimental: as §1
# [4] = biological target: T6, N-terminally HA-tagged TM4SF20 …; assay: flow cytometry screening of hybridoma supernatants on TM4SF20_Ba/F3 against parental Ba/F3 cells
# [5] = biological target: T7, human TM4SF20 (Transmembrane 4 L6 …); assay: flow cytometry, purified antibody at 10 µg/mL on A549 cells
# Experimental: as §1
# Each anti-TM4SF20 antibody prepared in Example 2 was used to evaluate TM4SF20 expression on the cell membrane of a human cancer cell line by flow cytometry. A primary antibody used was the anti-TM4SF20 antibody (purified antibody) or a negative control antibody (mIgG2a, BD Biosciences Pharmingen). […] The flow cytometry was conducted in the same way as in Example 3 except for the primary antibody used at a concentration of 10 μg/mL. As a result, the expression of TM4SF20 was confirmed on the cell membrane of the A549 cells (FIG. 9)
# [6] = biological target: T8, N-terminally HA-tagged chimeric TM4SF20 …; assay: flow cytometry, hybridoma culture supernatant on chimeric TM4SF20 ver.1_CHO cells
# Experimental: as §1, §2
binding result [1],binding result (GST_TM4SF20_C3),binding result (GST_TM4SF20_C2),binding result [2],binding result [3],binding result [4],binding result [5],binding result [6],Binder
no binding,no binding (tested: 5 µg/mL),no binding (tested: 5 µg/mL),no binding (tested: 10 µg/mL),,,,,"anti-TM4SF20 antibody C9 (antibody, mouse IgG1, V domains shown, also called clone C9) VH: QVQLKESGPDLVQPSQTLSLTCTVSGFSLSSYGVHWVRQPPGKGLEWVGTMGWDDKKYYNSALNSRLSLSRDTSKNQVFLKLSSLQTEDTAMYYCTRDYYSDGSFAYWGQGTLVTVSA VL: DVLMTQTPLSLPVSLGDQASISCKSSQSIVHSDGNTYLQWYLQKPGQSPKLLIYKVSNRFSGVPDRFSGSGSGTDFTLKISRVEAEDLGIYYCFQGSHVPPTFGTGTKLEIK"
no binding,no binding (tested: 5 µg/mL),no binding (tested: 5 µg/mL),no binding (tested: 10 µg/mL),,,,,"anti-TM4SF20 antibody B8 (antibody, mouse IgG2b, V domains shown, also called clone B8) VH: RVQLKESGPDLVQPSQTLSLTCTVSGFSLTNYGVHWIRQPPGKGLEWVGTVGWDDKKYYNSVLKSRLSINRDTSKNQVFLKLSSLQTEDTAMYYCTPYYDGSPYVMDYWGQGTSVTVSS VL: DIVMSQSPSSLAVSAGEKVTMTCKSSQSLFDSGTRKNYLAWYQQKPGQSPKLLIYWASTRESGVPDRFTGSGSGTDFTLTISSVQAEDLAVYYCKQSYYLLTFGAGTKLELK"
no binding,no binding (tested: 5 µg/mL),no binding (tested: 5 µg/mL),no binding (tested: 10 µg/mL),,,,,"anti-TM4SF20 antibody B15 (antibody, mouse IgG2a, V domains shown, also called clone B15) VH: RVQLKESGPDLVQPSQTLSLTCTVSGFSLTNYGVHWIRQPPGKGLEWVGTVGWDDKKYYNSVLKSRLSINRDTSKNQVFLKLSSLQTEDTAMYYCTPYYDGSPYVMDYWGQGTSVTVSS VL: DIVMSQSPSSLAVSAGEKVTMTCKSSQSLFDSGTRKNYLAWYQQKPGQSPKLLIYWASTRESGVPDRFTGSGSGTDFTLTISSVQAEDLAVYYCKQSYYLLTFGAGTKLELK"

# Further lines, the binder ahead of its results:
Binder,binding result [1],binding result (GST_TM4SF20_C3),binding result (GST_TM4SF20_C2),binding result [2],binding result [3],binding result [4],binding result [5],binding result [6]
"anti-TM4SF20 antibody C7 (antibody, mouse IgG1, V domains shown, also called clone C7) VH: QVQLKESGPDLVQPSQTLSLTCTVSGFSLSSYGVHWVRQPPGKGLEWVGTMGWDDKKYYNSALNSRLSLSRDTSKNQVFLKLSSLQTEDTAMYYCTRDYYSDGSFAYWGQGTLVTVSA VL: DVLMTQTPLSLPVSLGDQASISCKSSQSIVHSDGNTYLQWYLQKPGQSPKLLIYKVSNRFSGVPDRFSGSGSGTDFTLKISRVEAEDLGIYYCFQGSHVPPTFGTGTKLEIK",no binding,no binding (tested: 5 µg/mL),no binding (tested: 5 µg/mL),no binding (tested: 10 µg/mL),,,,
"anti-TM4SF20 antibody B11 (antibody, mouse IgG1, V domains shown, also called clone B11) VH: EVQLQQSGPELVKPGASVKMSCKASGYRFTNYVMHWVKQKPGQGLEWIGYINPYNAGTKYNEKFKGKATLTSDKSSSTAYMELSSLTSEDSAVYYCARGAGWSLRFADWGQGTLVTVSA VL: DILMTQSPSSMSVSLGDTVSITCHASQGISSNIGWLQQKPGKSFKGLIYLATNLEDGVPSRFSGSGSGADYSLTITSLESEDFAVYYCVQYSQFPRTFGGGTKLEIK",no binding,no binding (tested: 5 µg/mL),no binding (tested: 5 µg/mL),no binding (tested: 10 µg/mL),binds,binds,binds,binds
"anti-TM4SF20 antibody B12 (antibody, mouse IgG1, V domains shown, also called clone B12) VH: QVQLKESGPDLVQPSQTLSLTCTVSGFSLTNYGVHWVRQPPGKGLEWVGTMGWDDKKYYNSALKSRLSISRDTSKNQVFLKLSSLQTEDTAMYYCTRNVNFDYWGQGTTLTVSS VL: not shown",no binding,no binding (tested: 5 µg/mL),no binding (tested: 5 µg/mL),no binding (tested: 10 µg/mL),binds,binds,binds,binds
